According to publication PMC6739210:

What was measured:
[1] = molecular target: Mortalin/GRP-75/mt-hsp70 (human (endogenous in MCF-7, MDA-MB-231 and K562)) (UniProt P38646)
[2] = molecular target: Mortalin/GRP-75/mt-hsp70 (human (endogenous in MCF-7, MDA-MB-231 and K562)) (UniProt P38646); remark: listed apart in the source

Sequence of UniProt P38646 (P38646 47-679): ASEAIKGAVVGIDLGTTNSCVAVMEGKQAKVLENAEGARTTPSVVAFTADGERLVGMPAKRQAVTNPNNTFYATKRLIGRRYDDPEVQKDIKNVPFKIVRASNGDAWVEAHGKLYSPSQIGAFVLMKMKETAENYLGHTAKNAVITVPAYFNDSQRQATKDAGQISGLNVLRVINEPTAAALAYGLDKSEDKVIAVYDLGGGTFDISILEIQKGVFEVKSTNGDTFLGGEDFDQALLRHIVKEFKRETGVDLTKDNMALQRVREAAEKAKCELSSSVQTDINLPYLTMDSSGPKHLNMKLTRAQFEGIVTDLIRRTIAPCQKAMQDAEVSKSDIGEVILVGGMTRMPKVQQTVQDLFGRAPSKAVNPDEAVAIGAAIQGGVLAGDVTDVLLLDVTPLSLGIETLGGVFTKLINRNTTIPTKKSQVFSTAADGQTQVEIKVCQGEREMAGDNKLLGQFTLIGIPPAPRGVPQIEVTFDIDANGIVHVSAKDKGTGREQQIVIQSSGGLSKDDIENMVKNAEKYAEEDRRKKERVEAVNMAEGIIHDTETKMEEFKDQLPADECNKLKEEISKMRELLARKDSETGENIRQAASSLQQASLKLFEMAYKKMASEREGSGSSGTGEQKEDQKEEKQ

Q: How did the complement-mediated cytotoxicity (trypan blue), percent cell death of K562 cells treated with 1120 nM peptide, anti-CXCR4 antibody, minus or plus normal human serum [1] turn out when SMRwt-CPP peptide was run?
A: 23%

Q: What about the complement-mediated cytotoxicity (trypan blue), percent cell death of MCF-7 cells treated with 300 nM peptide, anti-CXCR4 antibody, minus or plus normal human serum [1] of the same substance?
A: 29%

Q: And the complement-mediated cytotoxicity (trypan blue), percent cell death of MDA-MB-231 cells treated with 540 nM peptide, anti-CXCR4 antibody, minus or plus normal human serum [1]?
A: 9%

Q: And the complement C9 level in extracellular vesicles of K562 cells after peptide and NHS, Western blot, compared to the NHS-treated controls [2]?
A: 24.3%

Q: And the complement C9 level in extracellular vesicles of MCF-7 cells after peptide and NHS, Western blot, compared to the NHS-treated controls [2]?
A: 37.5%

Q: And the complement C9 level in extracellular vesicles of MDA-MB-231 cells after peptide and NHS, Western blot, compared to the NHS-treated controls [2]?
A: 56.3%

Q: What about the mortalin level in extracellular vesicles of K562 cells after peptide and NHS, Western blot, compared to the NHS-treated controls [2] of the same substance?
A: 34.4%

Q: And the mortalin level in extracellular vesicles of MCF-7 cells after peptide and NHS, Western blot, compared to the NHS-treated controls [2]?
A: 48.4%

Q: What about the mortalin level in extracellular vesicles of MDA-MB-231 cells after peptide and NHS, Western blot, compared to the NHS-treated controls [2] of the same substance?
A: 27.5%
